Source: PMC9736779
pKd: −log10 of the molar value.

Target: nucleolin (NCL) (Homo sapiens) (UniProt P19338)
Assay: SPR
Details: SPR (Biacore X-100, CM5): 10 mM HEPES, 70 mM KCl, pH 7.4, 25 C, analyte 5-500 uM, two-state reaction fit

Chain of nucleolin (NCL) (Homo sapiens) (P19338 whole entry): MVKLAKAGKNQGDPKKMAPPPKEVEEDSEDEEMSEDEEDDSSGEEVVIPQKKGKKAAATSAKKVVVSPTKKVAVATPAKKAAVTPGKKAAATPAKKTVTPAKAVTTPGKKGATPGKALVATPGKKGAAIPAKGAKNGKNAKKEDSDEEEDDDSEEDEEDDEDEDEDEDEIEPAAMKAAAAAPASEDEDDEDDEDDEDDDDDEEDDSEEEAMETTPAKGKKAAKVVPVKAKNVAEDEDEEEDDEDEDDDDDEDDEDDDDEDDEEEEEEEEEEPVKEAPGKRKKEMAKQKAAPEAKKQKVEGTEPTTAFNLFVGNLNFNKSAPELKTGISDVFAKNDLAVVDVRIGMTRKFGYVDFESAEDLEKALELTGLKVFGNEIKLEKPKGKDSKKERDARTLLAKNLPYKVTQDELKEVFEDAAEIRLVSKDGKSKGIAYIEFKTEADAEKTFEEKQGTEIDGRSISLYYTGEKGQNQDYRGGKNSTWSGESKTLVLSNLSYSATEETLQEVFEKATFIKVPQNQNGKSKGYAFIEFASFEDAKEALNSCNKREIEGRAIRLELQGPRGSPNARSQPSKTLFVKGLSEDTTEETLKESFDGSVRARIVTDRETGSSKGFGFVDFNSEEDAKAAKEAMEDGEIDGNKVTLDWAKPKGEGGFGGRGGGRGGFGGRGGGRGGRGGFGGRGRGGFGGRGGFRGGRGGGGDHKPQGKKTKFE

| Sequence | pKd (N at 11-13 = abasic site mimic (dSpacer, 1',2'-dideoxyribose)) | pKd (N at 5,6 = abasic site mimic (dSpacer, 1',2'-dideoxyribose)) |
| --- | --- | --- |
| GGGGTTGGGGNNNGGGGTTGGGG [TBAG4GS] | 4.49 | – |
| GGGGNNGGGGTGTGGGGTTGGGG [TBAG41S] | – | 4.38 |
